# From the nanobody polyreactivity screen of Harvey et al. (2022)
# Test: yeast display, Sf9 membrane polyspecificity reagent, FACS + sequencing; frameworks hold sequencing errors
# How it was run: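 Nanobodies from a synthetic yeast display library (Saccharomyces cerevisiae BJ5465), induced 36–48 hours with galactose, were stained 1 hour at 4 °C with 10% biotinylated, detergent-solubilized Sf9 membrane reagent, enriched on streptavidin microbeads, then FACS-sorted. Anti-HA (expression) and streptavidin (reagent binding) fluorescence set low and high (top ~1%) gates. Polyreactivity labels come from the gate of origin. Genes were colony-PCR amplified, MiSeq 2 × 250 sequenced and filtered by CDR length.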
row,Sequence,polyreactivity (PSR sort gate)
1,QVQLVESGGGLVQAGGSLRLSCAASGRTFRYYAMGRSRQAPGTERELVAAISRSGGRTNYADSVKGRFTISRDNAKNTVYLQMNSLIPEDTAVDYCAADFRYTFDSWGQGTQVTVSS,high polyreactivity
2,QVQLVESGGGLVQAGGSLRLTCAASGRTLAWYTMGWYRQAPGKERELVAAISGSGGSTYYADSVKGRFTISRDNAKNTVYFQINRLKPEDTAVYYCSLRVDSYYGHTRYYYWGQGTQVTLSS,high polyreactivity
3,QVQLVESGGGLVQAGGSLRLSCAASGSTIYNNAMGWYRQAPGKERELVAAITRTGGRTYYADSVKGRFTITRDNAKNTVYLQMNSLKREDTAVYYCAATYPSGRDLSFDYWGQGTQVTVSS,high polyreactivity
4,QVQLVESGGGLVQAGGSLRLSCSASGFIFGKYAMGRYRQAPGKERELVAAISKSGGSTYYADSVKGRFTISRDNAKNTVYLQMNSLKPEDTAVYYCDARSLGHYGSWGQGTQVTVSS,high polyreactivity
5,QLQLVESGGGLVQAGGSLRLSCAASGSIFSFYAMGGYRQAPGKERELVATITYGSGSTHYADSVKGRFTISRDNAKNTVYLQLNSLKPEDSAVYYCAGETVRYEWGDSPAALFDYWGQGTQVTVSS,low polyreactivity
6,QVQLVESGGGLVQAGGSLRLSCAASGFTFYSYVMGWYRQAPGKERELVAAISWSGGRTNYADSVKGRFTISRDNAKNTVYLQMNSLKPEDTAVYYCNAPFRLRYRVDYWGQVTQVTVSS,high polyreactivity
7,QVPLVESGGGLVQAGGILRISCAATGSSFRFKAMGWYRQAPGQERELVAAISRRGSSTYYADSVKGRCTISRDNAKNRVYLQMNSLKAEDTAVYYCAASGGYRPHRYQIGDYDNWGQGTQVTLSS,high polyreactivity
8,QVQLVESGGGLDQAGGRLRLSCAASGFTIRDNAMGWYRQAPGKEMELVAAISRSGDSTNYADSVKGRFTISRDNAKNTVYLQMNSLKPEDTAVYYSAAKRRYTTYDYWGQGTLVTVSS,high polyreactivity
9,QVQLQESDGGLVQAGGSLRLSCAASGSISPQYYMGWYRQEPGKEREFVAISKGTTTYYADSVKGRLTISRVNAKNTVYLQMNSLKPEDTAVYCCAAGRWLQKVHAYWDQGTQVTVSS,low polyreactivity
10,QVQLVESCGGLVQAGGSLRLSCAASGGTFGPYAMAWYRQAPGKEREFVARITGSGTRTYYADSVKGRFTISRDNAKNTVYLQMNSLKPEDTAVYYCATSHSRGSRGHDYWGQGTQVTVSS,low polyreactivity
11,QVQLVESGGGLVQAGGTLRLSCAASGSIFAHYTMGWYRQAPGKERELVAVISRSGARTYYADSVKGRFTISRDNAKNTVYLQMNSLKPEDTAVYYCAADRTLEEDYWGQGTQVTVSS,low polyreactivity
12,QVQLVESGGGLVQAGGSLRLSCAASGRTFYYNPMGWYRQAPGKERELVAAITQSGGRTYYADSVKGRFTISRDNAKNTVYVQMNSVKPEDSAVYYFYAVRPVRGYIYQGYNYWGQGTQVTVSS,high polyreactivity
13,QVQLVESGGGLVQAGGSLRLSCAASGRTFFPYAMGWYRQAPGKEREFVAAITKSDYSTYYADSVKGRFTISRDNAKNTVYLQKNSLKPEDNAVYYCNAGDTQIRFYYWGQGTQVTVSS,low polyreactivity
14,QVQLVESGGGLVQAGGSHRLSCAAYGSTFFPNCMGWYRQAPGKERELVAAITSGGSTYADSVKGRFTISRDNAKNTVYLQMNSLKQEDTAFYYCAADSRQGFLLYGYWGQATQVTVSS,low polyreactivity
15,QVQLVESGGGLVQAGGSLRLSCAASGRIFVPYAMGWYRQAPGKERELVAVISRGGSTYYADSVKGRFTISRDNAKNTVYLQMNSLKPEDTAVYYCAARGVNRQGFNYWGQGTQVTVSS,high polyreactivity
16,QVQLVESGGGLVQAGGSLRLSCAASGFTFRYYAMGWYRQAPGKERELVAAITSGDSTYYADSVKGRFTISRDNAKNTVYLQMNSLKPEDTAVYYCAAYYYGYDYWGQGTQVTVSS,high polyreactivity
17,QVQLVESGGGLVQAGGSLRISCAASGLTFVYYTMGWYSQAPGKEREFVAGIDWSGGSTYYADSVKLRFTISRDNAKNTVYLQMNSLKPEDTAVYYCAAAVYYQYGVYRHDYWGQGTQVTVSS,low polyreactivity
18,QVQLVESGGGLVQAGGSLRLSCAASGRTFYKYAMGWYRQAPGKERELVAAISKSGGRTYYADSVKGRFTISRDNAKNTVYLQLNSLKPEDTAVYYCAAEPFIPDQSRYYYWGQGTQVTVSS,high polyreactivity
19,QVQPVESGGGLVQAGGSLRLSCDASGRIFYEYAMGRSRQAPGKERELVAISTSGGNTYYADSVKGRFTISRDNAKNTVYLQMKSLKPEDTEVYYCAKRGYRAYYWGQGTLVTVSS,high polyreactivity
20,QVQLVESGGGLVQAGGSLRLSCAASGRTFRWYAMGWYRQAPGKERELVAAISSSGTRTYYADSVKGRFTISRDNAKNTVYLQMNSLKPEDTAVYYCAATWRVGYDYWGQGTQVTVSS,high polyreactivity
21,QVQLVESGGGLVQAGGTLRLSCAASGSTFGYPMGGYRQSPGKERELVAAMTSTGGSTYYADSVKGRFTISRDNAKITVYLQMNSQKPEDTAVYYCAADAYWIRSRFLYRIRYNYWGLGTQVTVSS,high polyreactivity

row,Sequence,polyreactivity (PSR sort gate)
1,QVQLVESGGGLVQAGVSLRLSCAASGSTFKQYAMGWYRQAPGKERELVAAIDRGGSTYYADSVKGRFTISRDNANNTVYLQMNSLKPEYTAVYYCAARFVQYRYAFDYWGQGTQVTVSS,low polyreactivity
2,QVHIVESGGGLVQAGGSLRLSCAASGSNFTLYTMGWYRQAPGKERELVAAISTSGGRTYYADSVKGRFTISRDNAKNTVYLQMNSLKPEDTAVYYCNAGYWYYGQDDYWGQGTQVTVSS,high polyreactivity
3,QVQLVESGGGLVQAGGSLRLSCAASRSIFLYYAMGWYRQAPGKERELVAAISYSGSGTYADSVKGRFTISRDNAKNTVYLQMNSLKPEDTAVYYCNVDYGSYSYDYWGQGTQVTVSS,low polyreactivity
4,QVQLVESGGGLVQAGGSLSFSCAASGNTFYRNAMGWYSQAPGKERELVAAITFSTVRTYYADSVKGRFTISRDNAKNTVYLQMNSLKPEDTAVYYCNKLYRGTWAKENGYWGQGTQVTVSS,high polyreactivity
5,QVQLVVSGGGLVQAGGSLRLSCAASGSIFVPYAMGWYRQAPGKEREFVAAITRSSGSTYYADSVKGRFTISRDNAKNTVYLQMNSLKPEDTAVYYCAADFLLEFDYWGQGTQVTVSS,low polyreactivity
6,QFQIVESGGGLVQAGGSLRLSCAASGSIFTQYAMGWYRQAPGKERELVAAITSGGSTYADSVKGRFTISRDNAMNTVYLQMKSLKPEDTAVYYCATPYSYRGVTFNYWGQGTQVTVSS,low polyreactivity
7,QVQLLESGGGLVQAGGSLRLSCAASGSIYVYNAMAWYRQAPGKERELVAAISRGGRTYADSVKGRFTISRDNAKNTVYLQMNSLKPEDTAVYYCAAQGYYRSWYSRQGHYDFWGQGTQVTVSS,high polyreactivity
8,QVQLVESGGGLVQAGGSLRLSCAESGLILAGYTMGWYRQAPGKESELVAAISDRGGSTYYADSVKGRFTISRDNAKNTVYLQMNSLKPEDTAVYYCNAFVYSYALTPSYAGDYWGQGTQVTVSS,low polyreactivity
9,HVQLVESGGGLVQAGGSLRLTCAASGFSYGYYAMGWYRQAPGKEWELVATISSGDNTYYADSVKGRFTSSRDNAKNTVYLQMNSLKPEDTAVYYCAARYPHYFVRGGYWGQGTQVTVSS,high polyreactivity
10,QVQLVESGGGLDQAGGSLRLSCAASGITFDYYAIGWYRQAPGKERELVAAISRAGSTNYADSVKGRFTISRDNAKNTVYLQMNSLKPEDTAVYYCNNGYHSWSRLSQFGWSYDYWGQGTQVTVSS,high polyreactivity
11,QVQLVETGGGLVQAGGTLRLSCAPSGLIVDLYAMGCYRQAPGKERELVATISGSGGSTYYADSEKGRFTISRDNAKNTVYLQMNSLKPEDTAFYYCAAVSVSSWYDDCGQGTQVTVSS,low polyreactivity
12,QVQLVESGGGLVQAGGSLRLSCAASGRTLKTYVMGWYRQAPGKERELVAAITSGGRTYYADSVKGRFTISRDNAKNTVYVQMNSLKPEDTAVYYCNAQLYWSRSWYLFDNTSFDYWGQGTQVTVSS,low polyreactivity
13,QVHLVESGGGLVQAGGSLRLSCAASGRIFVFNAMGWYRQAPGKERELVAAINYRGGTYYADSVKGRFTISRDNAKNTVYLQMNSLKPEDTAVYYCNALRQKFQYHDNDYWGQGTQVTVSS,high polyreactivity
14,QVQLVESGGGLVQAGGSLRLSCAASGFTFYYYAMGWSRQAPGKERELVAAISQNGGRTYYADSVKGRFTISRDNAKNTVYLQMNSLKPEDTAVYYCAKASGYSSYGYWGQGTQVTVSS,high polyreactivity
15,QVQLVESGGGLVQAGGSLRLSCAASGSIFRRNAMGWYRQAPGKERELVATITSDGSTDYADSVKGRFTISRDNAKNTFYLQMISLKPEDTAVYYCAVAYLWRPYDFREFDYWGQGTQVTLSS,low polyreactivity
16,QVKLVESGGGLVQAGGSLRLSCAASGFIIGGYGMGWYRQAPGKERELVAVITASGGSTYYADSVKWLFTISRDNAKNTVYLQMNSLKPEDTGVYYCAARVGRYGYSQYYYWGQGTQVTVSS,high polyreactivity
17,QVQLVESAGGLVQAGGRLRVSCAASGFIFLYYPMGWYRKAPGKEREFVAAISWSDGNTYYADSVKGRFTISRDTAKNTDYLQMNSLKREDTAVYYCNARDADAWASGYDYWGQGTQLTVSS,low polyreactivity
18,QVQLVESGGGLVQAGGSLRLRCAASVRTFYTYAMGWYRQAPGKERELVAAISKRGTSTYYADSVKGRFTISRDNAKNTDYFQMNSLKPQDTAVYYCAAAVYQRARYYWGQGTQVTVSS,high polyreactivity
19,QVQLVESGGGLVQAGGSLRLSCAASGFIFVNKAMGWYRQAPGKERELVATISRGGSTNYADSVKGRFTISRDNAKNTVYLQMNSLKPEDTAVYYCNARRSVKVYGVDYWGQGTQVTVSS,high polyreactivity
20,QVQLVESGGGLVQAGGSLRISCAASGGTFRPNAKGWSRQAPGKERELVAAITRSGGSTYYADSVKGRFTISRDNAKNTVYLQRNSLKPEETAVYYCARDLREWGQGTQVTVSS,low polyreactivity
